T1: human LAG-3 expressed on cells (human, UniProt P18627 23-525)
T1 construct: the transgene of the cell lines is not tied to it by name; also called hLAG-3; 3A9.hLAG-3
T1 sequence: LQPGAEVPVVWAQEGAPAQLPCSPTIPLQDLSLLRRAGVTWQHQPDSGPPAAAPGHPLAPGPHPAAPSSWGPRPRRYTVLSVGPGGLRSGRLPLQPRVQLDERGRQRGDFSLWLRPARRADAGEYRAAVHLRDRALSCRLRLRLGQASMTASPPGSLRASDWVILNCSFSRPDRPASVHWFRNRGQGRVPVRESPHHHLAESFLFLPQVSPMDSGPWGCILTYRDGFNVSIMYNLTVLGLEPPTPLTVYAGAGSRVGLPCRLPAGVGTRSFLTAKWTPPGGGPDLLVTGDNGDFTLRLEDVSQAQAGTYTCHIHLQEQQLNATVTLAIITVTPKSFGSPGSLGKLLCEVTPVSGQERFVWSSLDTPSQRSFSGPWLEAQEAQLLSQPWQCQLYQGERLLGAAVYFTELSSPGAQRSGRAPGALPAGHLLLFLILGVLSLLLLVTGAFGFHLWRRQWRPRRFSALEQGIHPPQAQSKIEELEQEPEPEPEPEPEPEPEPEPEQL

T2: human LAG-3-hFc (human, UniProt P18627 23-450)
T2 construct: also called human LAG3-Fc; not shown: human Fc (hFc)
T2 sequence: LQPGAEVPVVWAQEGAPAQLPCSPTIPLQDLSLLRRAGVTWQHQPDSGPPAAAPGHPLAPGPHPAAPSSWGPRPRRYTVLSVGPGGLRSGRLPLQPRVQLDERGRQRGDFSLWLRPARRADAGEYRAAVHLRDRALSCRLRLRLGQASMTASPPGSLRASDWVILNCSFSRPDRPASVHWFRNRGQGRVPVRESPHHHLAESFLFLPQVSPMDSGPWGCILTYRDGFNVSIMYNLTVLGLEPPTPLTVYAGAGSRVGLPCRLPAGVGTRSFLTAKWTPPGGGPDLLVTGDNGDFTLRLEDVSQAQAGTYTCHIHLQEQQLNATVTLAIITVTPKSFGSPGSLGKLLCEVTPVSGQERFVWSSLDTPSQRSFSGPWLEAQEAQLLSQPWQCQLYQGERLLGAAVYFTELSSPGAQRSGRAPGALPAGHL

B1: F0237611B09-FLAG3-HIS6 (VHH)
VHH: EVQLVESGGGLVQAGGSLRLSCAASGRTFSDYVMGWFRQARGNEREFVAAISESGGRTHYADAVKGRFTISRDNAKNTLYLQMNSLKPEDTAVYYCATTLLWWTSEYAPIKANDYDYWGQGTLVTVSS
notes: Original monovalent anti-human LAG-3 Nanobody; also called F0237611B09-FLAG-His6; F02376611B09
B2: F023700275 (1PD102C12(A14P, A74S, K83R)-FLAG3-HIS6) (VHH)
VHH: EVQLVESGGGLVQPGGSLRLSCAASGSIASIHAMGWFRQAPGKEREFVAVITWSGGITYYADSVKGRFTISRDNSKNTVYLQMNSLRPEDTAIYYCAGDKHQSSWYDYWGQGTLVTVSS
notes: Monovalent anti-human PD-1 Nanobody, parent of F023700706

Assays:
[1] = molecular target: T1, human LAG-3 expressed on cells; test: flow cytometry on 3A9 cells over-expressing human LAG-3
Protocol: Binding to cell-expressed human LAG-3 was evaluated on human LAG-3 over-expressing 3A9 cells. A Nanobody dilution series was prepared in assay buffer: PBS/10% FBS/0.05% sodium azide. 1×10⁵ cells/well were transferred to a 96-well V-bottom plate and resuspended in 100 μL Nanobody dilution. After 30 minutes incubation at 4° C., the cells were washed with 100 μL/well assay buffer and resuspended in 100 μL/well of 1 μg/ml anti-FLAG (Sigma, F1804). […] Samples were incubated for 30 minutes at 4° C., washed, and resuspended in 100 μL/well of 5 nM TOPRO3 (LifeTechnologies, T3606) solution before analysis on FACS CANTO II (BD).

[2] = molecular target: T2, human LAG-3-hFc; test: flow cytometry ligand competition; LAG-3-hFc on Daudi cells
Protocol: A Nanobody dilution series was prepared in assay buffer: HBSS/2% FBS. Prior to the experiment, Fc receptors on the Daudi cells were blocked with human Fc block (BD Pharmingen, 564220) and 5 μg/mL goat IgG (Jackson ImmunoResearch, 005-000-003) for 30 minutes at 4° C. […] 1×10⁵ cells/well were seeded in V-bottom 96-well plates and resuspended in 100 μL/well of the Nanobody/ligand dilution. After 30 minutes incubation at 4° C., the cells were washed and resuspended in 100 μL/well PE-labeled Goat anti-human IgG (Southern Biotech, 2043-09). Samples were incubated for 15 minutes at 4° C., washed, and resuspended in 100 μL/well of 5 nM TOPRO3 (LifeTechnologies, T3606) solution before analysis on FACS CANTO II (BD).

[3] = molecular target: T3, human PD-1 expressed on cells (human, UniProt Q15116 25-288); test: flow cytometry ligand competition on CHO cells over-expressing human PD-1
T3 construct: the transgene of the cell lines is not tied to it by name; also called hPD-1; CHO.hPD-1
T3 sequence (Q15116 25-288 limits assumed): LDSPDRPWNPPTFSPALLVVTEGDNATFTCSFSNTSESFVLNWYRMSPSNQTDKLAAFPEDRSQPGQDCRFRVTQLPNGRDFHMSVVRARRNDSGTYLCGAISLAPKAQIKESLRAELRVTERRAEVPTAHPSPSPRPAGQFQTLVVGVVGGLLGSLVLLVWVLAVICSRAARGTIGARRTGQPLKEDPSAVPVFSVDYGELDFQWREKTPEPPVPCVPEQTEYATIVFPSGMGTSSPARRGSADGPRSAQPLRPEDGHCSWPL
Protocol: Ligand competition assays were performed on human PD-1 over-expressing CHO cells. A Nanobody dilution series was prepared in assay buffer: PBS/10% FBS/0.05% sodium azide. […] 2×10⁴ cells/well were seeded in V-bottom 96-well plates and resuspended in 200 μL/well of the Nanobody/ligand dilution. After 90 minutes incubation at 4° C., the cells were washed with 100 μL/well assay buffer and resuspended in 100 μL/well PE-labeled Goat anti-human IgG (Southern Biotech, 2043-09). Samples were incubated for 30 minutes at 4° C., washed, and resuspended in 100 μL/well of 5 nM TOPRO3 (LifeTechnologies, T3606) solution before analysis on FACS CANTO II (BD).

| binding result [1] | binding result [2] | binding result [3] | Binder |
| --- | --- | --- | --- |
| binds | binds | – | B1 |
| – | – | binds | B2 |

— US20190330339A1 (published 2019)
